Consider eight molecules from patent US20240033341A1 (CALIFORNIA INSTITUTE OF TECHNOLOGY, published 2024).

The labels stand for the following.
B1: 3BNC60 iGL IgG (antibody, V domains shown)
VH: not shown
VL: DIQMTQSPSSLSASVGDRVTITCQASQDISNYLNWYQQKPGKAPKLLIYDASNLETGVPSRFSGSGSGTDFTFTISSLQPEDIATYYCQQYEFIGPGTKVDIKR
B2: VRC01 iGL IgG (antibody, V domains shown)
VH: not shown
VL: EIVLTQSPATLSLSPGERATLSCRASQSVSSYLAWYQQKPGQAPRLLIYDASNRATGIPARFSGSGSGTDFTLTISSLEPEDFAVYYCQQYEFFGQGTKLEIKR
B3: IO-010 (antibody, V domains shown)
VH: QVQLVQSGAEVKKPGASVTVSCKASGYTFTGYHLHWVRQAPGQGLEWMGWINPFRGAIGYAQKFRGRVTMTRDTSIITAYMELRGLRSDDTAVYFCAREMFDSDDEWSPWRGMVAWGQGTLVTVSS
VL: QSALTQPASVSGSPGQSITISCTGTSSDIGGYNLVSWYQQHPGKAPKLMIYDVNKRPSGVSNRFSGSKSGNTASLTISGFQAEDEADYYCCSYADTLVFGGGTKLTVL
notes: also called 10-010
B4: IO-050 (antibody, V domains shown)
VH: QVQLVQSGAEVKKPGASVRVSCKASGYTFTDYEIHWVRQAPGQGLEWMGWINPFRGAVKYRQKFQGRVTMTRDPSITTAYMELSRLRSDDTARYYCAREMFDSDDEWSPWRGMVAWGQGTLVTVSS
VL: B3 VL with I29V, G31S, D52E, N54S, K55R, V98I
B5: IO-008 (antibody, V domains shown)
VH: QVQLVQSGAEVKKPGASVTVSCKASGYTFTGYELHWVRQAPGQGLEWMGWINPYRGAVKYAQKFQGRVTMTRDTSISTAYMVLNGLRSDDTAVYYCARDMFDSSDEWSPWRGMVAWGQGTPVTVSS
VL: B3 VL with I29V, G31S, N33D, D52E, N54S, F80L, T96S, L105V, V107G
B6: IO-017 (antibody, V domains shown)
VH: B3 VH with I77N, E106D
VL: B3 VL with N33D
notes: also called 10-017
B7: IO-003 (antibody, V domains shown)
VH: QVQLVQSGAEVKKPGASVTVSCKASGYTFTDYFIHWVRQAPGQGLEWMGWINPFRGAVDYAQKFRGRVTMTRDTSITTAYMELSRLRSDDTAVYYCARAMFDSSDEWSPWHGLVAWGQGTLVTVSS
VL: QSALTQPASVSGSPGQSITISCTGTSRDIGSFNLVSWYQQHPGKAPKLMIYDVSKRPSGVSNRFSGSKSDNMASLIISGFQAEDEAEYFCCSFAGSLAFGGGTKLTVL
B8: IOMA IgG (antibody, V domains shown)
VH: EVQLVESGAQVKKPGASVTVSCTASGYKFTGYHMHWVRQAPGRGLEWMGWINPFRGAVKYPQNFRGRVSMTRDTSMEIFYMELSRLTSDDTAVYYCAREMFDSSADWSPWRGMVAWGQGTLVTVSS
VL: QSALTQPASVSGSPGQSITISCAGSSRDVGGFDLVSWYQQHPGKAPKLIIYEVNKRPSGISSRFSASKSGNTASLTISGLQEEDEAHYYCYSYADGVAFGGGTKLTVLG
notes: Mature CD4bs bNAb; also called mature IOMA

Changes are numbered by the printed parent chain.

The target in one assay is T1, IGT2 gp120 (HIV-1 (clade C strain 426c, engineered)). Kind of assay: ELISA with gp120 (FIG. 1E, FIG. 6J).
B1: the binding result is “binds”.

Another assay addresses T1, IGT2 gp120. Kind of assay: ELISA, gp120 coated on the plate, IgG titrated. Background: ELISA stands for enzyme-linked immunosorbent assay.
With B2, the binding result is reported as “binds”.

Another assay has as its target 426c.TM4 gp120 (HIV-1 (clade C strain 426c, engineered)). Briefly: ELISA, gp120 coated on the plate, IgG titrated.
Consider B1, for which the binding result is reported as “binds”.

For another assay, the target named is T2, IGT2 SOSIP (HIV-1 (clade C strain 426c, engineered)).
T2 construct: also called SOSIP version of IGT2
Briefly: SPR with SOSIP (FIG. 6I), ELISA (FIG. 1E).
For the molecule B2, the binding result was “binds”.
Regarding B1, the binding result is “binds”.

A further assay concerns the target CNE20 N276A. Briefly: Env ELISA, IgG dilution series on SOSIP trimer, area under the binding curve.
Regarding B3, the binding result is reported as “binds”.
For B4, the binding result was “binds”.
Same read-out and setting: for B5 the value was “binds”.
Same read-out and setting: for B6 the value was “binds”.
Same read-out and setting: for B7 the value was “binds”; for B8, “binds”.

A further assay deals with T3, CNE20.
T3 construct: also called CNE20 SOSIP
The description is as above.
For B3, the binding result is recorded as “binds”.
Regarding B4, the binding result is given as “binds”.
On to B5, for which the binding result is recorded as “binds”.
Regarding B6, the binding result is given as “no binding”.
On to B7, for which the binding result is given as “binds”.
As for B8, the binding result is on record as “binds”.

The target of another assay is T4, CE0217 (Autologous).
T4 construct: also called CE0217 SOSIP
The description is as above.
As for B3, the binding result is reported as “binds”.
Same read-out and setting: for B4 the value was “binds”.
Take B6: the binding result is “binds”.
The same measure, in the same setting: for B8 the value was “binds”.

A further assay deals with BG505. The description is as above.
Regarding B3, the binding result is listed as “binds”.
On the same count and under the same terms, for B4 the value was “no binding”; for B5, “binds”.
Same read-out and setting: in the case of B7 it was “binds”.
Still for that read-out and setting: for B8 the value was “binds”.
